doi:10.1101/2020.04.16.045526

Molecular target: T1, HapR (Vibrio cholerae E7946 (El Tor)) (UniProt Q4F6W7)
T1 sequence: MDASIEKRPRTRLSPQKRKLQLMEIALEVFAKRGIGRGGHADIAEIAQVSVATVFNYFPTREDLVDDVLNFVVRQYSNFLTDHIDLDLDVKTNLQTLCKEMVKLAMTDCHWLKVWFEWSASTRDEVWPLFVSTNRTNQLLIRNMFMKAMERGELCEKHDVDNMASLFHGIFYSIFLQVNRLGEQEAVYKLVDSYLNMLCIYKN
Assay: EMSA
Conditions: 1-2 internal Cy5-dCTP incorporated by PCR

## TAAGCAAACTGTAGCGTAGAAGGTTGACGAAACAAGCAATCATCTGCTAACAATGGTCCGTGTGATACCCATCATCCGGGCCATTTATTTTAGGGATATAAGACTATGAGCTACCAAGAAAAAAATGCA (double strand) [PclpP promoter probe]
  binding: no binding
